To fix the notation:
T1: Trs120 (TRAPPII-specific subunit, in purified TRAPPII) (S. cerevisiae, UniProt Q04183 1-1289)
T1 construct: Trs120, S. cerevisiae, endogenous; also called Trs120 lid; source: endogenous, purified from S. cerevisiae as a subunit of TRAPPII
T1 sequence (looked up): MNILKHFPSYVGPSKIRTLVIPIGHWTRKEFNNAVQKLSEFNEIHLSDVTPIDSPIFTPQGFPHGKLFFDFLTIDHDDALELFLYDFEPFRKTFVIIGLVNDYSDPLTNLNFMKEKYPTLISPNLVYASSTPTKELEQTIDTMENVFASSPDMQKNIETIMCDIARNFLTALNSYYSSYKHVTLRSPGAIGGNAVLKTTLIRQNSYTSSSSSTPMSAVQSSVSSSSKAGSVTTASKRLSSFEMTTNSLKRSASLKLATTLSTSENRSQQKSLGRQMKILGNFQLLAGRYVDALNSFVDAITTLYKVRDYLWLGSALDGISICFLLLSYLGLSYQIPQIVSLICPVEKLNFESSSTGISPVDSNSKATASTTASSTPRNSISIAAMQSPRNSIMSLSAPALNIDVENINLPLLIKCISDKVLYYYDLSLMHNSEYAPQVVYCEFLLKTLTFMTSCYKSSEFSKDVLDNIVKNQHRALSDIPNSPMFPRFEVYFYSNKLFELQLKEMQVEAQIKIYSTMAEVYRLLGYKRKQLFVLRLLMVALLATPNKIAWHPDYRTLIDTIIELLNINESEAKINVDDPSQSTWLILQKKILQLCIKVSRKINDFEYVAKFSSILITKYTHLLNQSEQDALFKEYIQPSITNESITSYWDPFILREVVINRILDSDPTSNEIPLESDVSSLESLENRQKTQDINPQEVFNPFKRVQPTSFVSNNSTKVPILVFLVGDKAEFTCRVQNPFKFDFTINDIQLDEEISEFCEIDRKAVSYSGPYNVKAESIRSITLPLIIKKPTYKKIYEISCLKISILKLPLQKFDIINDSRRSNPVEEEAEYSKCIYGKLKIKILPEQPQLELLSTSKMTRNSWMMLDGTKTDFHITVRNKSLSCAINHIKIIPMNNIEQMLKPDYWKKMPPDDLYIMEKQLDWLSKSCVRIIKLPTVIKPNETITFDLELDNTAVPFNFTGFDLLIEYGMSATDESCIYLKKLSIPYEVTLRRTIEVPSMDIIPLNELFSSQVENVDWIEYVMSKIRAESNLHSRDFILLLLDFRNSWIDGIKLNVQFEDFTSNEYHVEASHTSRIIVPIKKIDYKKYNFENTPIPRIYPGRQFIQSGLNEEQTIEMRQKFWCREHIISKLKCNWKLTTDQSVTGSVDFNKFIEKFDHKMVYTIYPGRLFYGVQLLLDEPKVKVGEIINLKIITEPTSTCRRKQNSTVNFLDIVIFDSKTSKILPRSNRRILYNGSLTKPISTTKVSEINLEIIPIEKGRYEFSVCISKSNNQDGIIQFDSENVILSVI

T2: Trs31 (TRAPP core subunit, in purified TRAPPII) (S. cerevisiae, UniProt Q03337 1-283)
T2 construct: Trs31, S. cerevisiae, endogenous; source: endogenous, purified from S. cerevisiae as a subunit of TRAPPII
T2 sequence (looked up): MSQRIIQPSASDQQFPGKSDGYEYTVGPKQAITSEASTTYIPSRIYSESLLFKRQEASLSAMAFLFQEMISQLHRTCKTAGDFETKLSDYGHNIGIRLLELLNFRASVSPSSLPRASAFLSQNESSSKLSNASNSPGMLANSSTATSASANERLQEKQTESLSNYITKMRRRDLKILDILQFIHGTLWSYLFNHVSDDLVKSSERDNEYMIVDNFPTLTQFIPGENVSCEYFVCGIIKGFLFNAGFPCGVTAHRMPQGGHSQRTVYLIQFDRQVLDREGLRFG

B1: Bet3 (TRAPP core subunit, in purified TRAPPII) (natural protein, S. cerevisiae, UniProt P36149 1-193, looked up)
chain: MVSTTQSRSLKAMGEEIWKNKTEKINTELFTLTYGSIVAQLCQDYERDFNKVNDHLYSMGYNIGCRLIEDFLARTALPRCENLVKTSEVLSKCAFKIFLNITPNITNWSHNKDTFSLILDENPLADFVELPMDAMKSLWYSNILCGVLKGSLEMVQLDCDVWFVSDILRGDSQTEIKVKLNRILKDEIPIGED
notes: Bet3, S. cerevisiae, endogenous; source: endogenous, purified from S. cerevisiae as a subunit of TRAPPII
B2: Bet5 (TRAPP core subunit, in purified TRAPPII) (natural protein, S. cerevisiae, UniProt Q03630 1-159, looked up)
chain: MGIYSFWIFDRHCNCIFDREWTLASNSASGTINSKQNEEDAKLLYGMIFSLRSITQKLSKGSVKNDIRSISTGKYRVHTYCTASGLWFVLLSDFKQQSYTQVLQYIYSHIYVKYVSNNLLSPYDFAENENEMRGQGTRKITNRNFISVLESFLAPMVNQ
notes: Bet5, S. cerevisiae, endogenous; source: endogenous, purified from S. cerevisiae as a subunit of TRAPPII
B3: Rab11/Ypt32-7xHis (natural protein, S. cerevisiae, UniProt P51996 1-220, looked up)
chain: MSNEDYGYDYDYLFKIVLIGDSGVGKSNLLSRFTTDEFNIESKSTIGVEFATRTIEVENKKIKAQIWDTAGQERYRAITSAYYRGAVGALIVYDISKSSSYENCNHWLTELRENADDNVAVGLIGNKSDLAHLRAVPTDEAKNFAMENQMLFTETSALNSDNVDKAFRELIVAIFQMVSKHQVDLSGSGTNNMGSNGAPKGPTISLTPAPKEDKKKKSSN
notes: Ypt32 (yeast Rab11 paralog), S. cerevisiae; the C-terminal cysteines (residues 221 and 222) were substituted with the 7xHis tag; Made nucleotide-free with calf intestine alkaline phosphatase for the complex with TRAPPII; also called nucleotide-free Rab11/Ypt32; not shown: GST, N-terminal, cleaved; 7xHis, C-terminal, kept
B4: Trs20 (TRAPP core subunit, in purified TRAPPII) (natural protein, S. cerevisiae, UniProt P38334 1-175, looked up)
chain: MPQYFAIIGKKDNPVYEIEFTNAENPQGFPQDLKELNPFILHASLDIVEDLQWQINPTSQLNGNGGNGSNGGGGFLRSRAVNNTDNCYLGKVDHFYGLAITAYISYSGMKFVMIHGNSANSSVVIDDNNMRSFYQEVHELYVKTLMNPFYKITDPIRSPAFDSRVRTLARKHLSK
notes: Trs20, S. cerevisiae, endogenous; source: endogenous, purified from S. cerevisiae as a subunit of TRAPPII
B5: Trs23 (TRAPP core subunit, in purified TRAPPII) (natural protein, S. cerevisiae, UniProt Q03784 1-219, looked up)
chain: MAIETILVINKSGGLIYQRNFTNDEQKLNSNEYLILASTLHGVFAIASQLTPKALQLTQQTNIENTIPYIPYVGMSSNRSDTRNGGGNNNKHTNNEKLGSFKGDDFFKEPFTNWNKSGLRQLCTDQFTMFIYQTLTGLKFVAISSSVMPQRQPTIATTDKPDRPKSTSNLAIQIADNFLRKVYCLYSDYVMKDPSYSMEMPIRSNLFDEKVKKMVENLQ
notes: Trs23, S. cerevisiae, endogenous; source: endogenous, purified from S. cerevisiae as a subunit of TRAPPII

Test in all cases: cryo-EM structure; TRAPPII purified from yeast, incubated with tenfold molar excess of Rab11/Ypt32-7xHis and calf intestine alkaline phosphatase at 4°C overnight (nucleotide-free Rab), complex purified on Calmodulin Sepharose and by SEC; 10 mM tris (pH 8.0), 150 mM NaCl, 0.1% CHAPS, 1 mM Mg acetate, 1 mM dithiothreitol; single-particle cryo-EM
What all share (conditions): both partners purified
Background: In gel filtration, larger molecules generally elute earlier.

The assay “Rab11/Ypt32-7xHis” has as its target B3.
Assay [1] has as its target T1, Trs120 (TRAPPII-specific subunit, in …).
The target in assay [2] is T2, Trs31 (TRAPP core subunit, in purified …).

Consider B1, for which, in the assay with Rab11/Ypt32-7xHis, the binding result is “binds”. Same read-out and setting: under B2 stands “binds”.

Take B3: the binding result in assay [1] and in assay [2] was “binds” each time. Consider B4, for which the binding result in assay [1] is reported as “binds”. On to B5, for which the binding result with Rab11/Ypt32-7xHis was “binds”.

For the origin of these results see article PMC9106297, “Structure of a TRAPPII-Rab11 activation intermediate reveals GTPase substrate selection mechanisms” (Science Advances, 2022).
